This is an account of results in publication PMC10825186, “A universal metabolite repair enzyme removes a strong inhibitor of the TCA cycle” (Nature Communications, 2024).

The Km is the substrate concentration at which the rate is half of its maximum. Usually Vmax stands for the rate approached at saturating substrate. Broadly, the kcat is the number of substrate molecules converted per active site and unit of time at saturation. In general, kcat/Km refers to the second-order rate constant that governs catalysis at low substrate concentration.

Substitutions are numbered along the chain they refer to. Names and notes keep the numbering of the source.

B1: Hs FAHD2A (Homo sapiens) (protein)
chain: AAQLPVLPRSEVTFLAPVTRPDKVVCVGMNYVDHCKEQNVPVPKEPIIFSKFASSIVGPYDEVVLPPQSQEVDWEVELAVVIGKKGKHIKATDAMAHVAGFTVAHDVSARDWQMRRNGKQWLLGKTFDTFCPLGPALVTKDSVADPHNLKICCRVNGEVVQSGNTNQMVFKTEDLIAWVSQFVTFYPGDVILTGTPPGVGVFRKPPVFLKKGDEVQCEIEELGVIINKVV
B2: Hs FAHD2B (Homo sapiens) (protein)
chain: B1 chain with R9W, R20W, Q113L, M114T, G163S
B3: Sc FMP41 (Saccharomyces cerevisiae S288C) (protein)
chain: MSYNYLKAARKIICIGRNYAAHIKELNNSTPKQPFFFLKPTSSIVTPLSSSLVKTTRPANSTFNGLNEDGTNPGPIFIPRGVKVHHEIELALIVSKHLSNVTKMKPEEVYDSISGVALALDLTARNVQDEAKKKGLPWTISKGFDTFMPISAIVSREKFSSYKSNLQDIFRVKCSVNGQLRQDGGTNLMLHPLHKILQHISTMISLEPGDIILTGTPAGVGELKPGDRVHCELLQNNDNIVDMNFECENRPGPYEFRET
B4: Bt FAHD2A (Bos taurus) (protein)
chain: ATQLPVLPRSEVTFLAPVTRPDKVVCVGMNYADHCREQNVPVPKEPIIFSKFASAIVGPYDNIILPPESQEVDWEVELAVVIGKRGKYIKATDAMAHVAGFTVAHDVSARDWQMGRNGKQWLLGKTFDTFCPLGPALVTKDSVADPHNLKICCRVNGEVMQSSNTNQMVFKTEELITWVSQFVTLYPGDIILTGTPPGVGVFRKPPVFLKKGDEVQCEIEELGVIINKVV
B5: Bs YisK (Bacillus subtilis subsp. subtilis str. 168) (protein)
chain: MKFATGELYNRMFVGLIIDDEKIMDLQKAEKKLFELETIPGSLIECIAEGDKFVAHARQLAEWAKKPNDELGSFMYSLSEVKLHAPIPKPSKNIICIGKNYRDHAIEMGSEADIPEHPMVFTKSPVTVTGHGDIVKSHEEVTSQLDYEGELAVVIGKSGTRISKEDAYDHVFGYTIVNDITARDLQKRHKQFFIGKSLDTTCPMGPVLVHKSSIQEPERLKVETRVNGELRQSGSASDMIFSIPELIETLSKGMTLEAGDIIATGTPSGVGKGFTPPKFLRSGDKIDITIDPIGTLSNQIG
B6: Hs FAHD1 (Homo sapiens) (protein)
chain: MGIMAASRPLSRFWEWGKNIVCVGRNYADHVREMRSAVLSEPVLFLKPSTAYAPEGSPILMPAYTRNLHHELELGVVMGKRCRAVPEAAAMDYVGGYALCLDMTARDVQDECKKKGLPWTLAKSFTASCPVSAFVPKEKIPDPHKLKLWLKVNGELRQEGETSSMIFSIPYIISYVSKIITLEEGDIILTGTPKGVGPVKENDEIEAGIHGLVSMTFKVEKPEY
B7: Ec YcgM (Escherichia coli K-12) (protein)
chain: MYQHHNWQGALLDYPVSKVVCVGSNYAKHIKEMGSAVPEEPVLFIKPETALCDLRQPLAIPSDFGSVHHEVELAVLIGATLRQATEEHVRKAIAGYGVALDLTLRDVQGKMKKAGQPWEKAKAFDNSCPLSGFIPAAEFTGDPQNTTLSLSVNGEQRQQGTTADMIHKIVPLIAYMSKFFTLKAGDVVLTGTPDGVGPLQSGDELTVTFDGHSLTTRVL

Substrate in one data set: O=C(O)C=C(O)C(=O)O
The data set is described as follows: purified protein. Conditions: pH 7.5, 22 °C, 10 mM potassium phosphate, 0.3 mM NADH, malate dehydrogenase, OAA added in dry acetone.
For the molecule B1, the Km is 22.2 ± 3.6 µM, the maximal velocity (Vmax) worked out at 22.2 µmol/min/mg, the kcat was determined as 13.6 s⁻¹ and the catalytic efficiency (kcat/Km) was determined as 628000 M⁻¹ s⁻¹.
Taken in the same sequence, the figures for B2 were 296 ± 12 µM, 112 µmol/min/mg, 68.7 s⁻¹ and 232000 M⁻¹ s⁻¹.
On the same counts, the results for B3 are 219 ± 23 µM, 717 µmol/min/mg, 369 s⁻¹ and 1.75e+06 M⁻¹ s⁻¹.
With B4, the Michaelis-Menten constant (Km) amounted to 20.2 ± 1.4 µM, the maximum rate (Vmax) amounted to 53.5 µmol/min/mg, the kcat was found to be 32.7 s⁻¹ and the kcat/Km turned out to be 1.63e+06 M⁻¹ s⁻¹.
On the same counts, the results for B5 are 43.8 ± 8.1 µM, 402 µmol/min/mg, 237 s⁻¹ and 5.81e+06 M⁻¹ s⁻¹.
Taken in the same sequence, the figures for B6 were 15.8 ± 5.9 µM, 69 µmol/min/mg, 31.1 s⁻¹ and 1.99e+06 M⁻¹ s⁻¹.
B7: the Michaelis constant (Km) came out at 26.9 ± 0.4 µM, the Vmax is 372 µmol/min/mg, the turnover number (kcat) was determined as 161 s⁻¹ and the kcat/Km turned out to be 5.95e+06 M⁻¹ s⁻¹.

The target of another data set is T1, bovine succinate dehydrogenase (SDH) (Bos taurus, UniProt P31039).
T1 construct: gene SDHA; native complex II, dodecyl-maltoside-solubilized and enriched from bovine heart submitochondrial particles; with Succinate dehydrogenase [ubiquinone] iron-sulfur subunit, mitochondrial; Succinate dehydrogenase cytochrome b560 subunit, mitochondrial; Succinate dehydrogenase [ubiquinone] cytochrome b small subunit, mitochondrial
T1 sequence (P31039 44-665): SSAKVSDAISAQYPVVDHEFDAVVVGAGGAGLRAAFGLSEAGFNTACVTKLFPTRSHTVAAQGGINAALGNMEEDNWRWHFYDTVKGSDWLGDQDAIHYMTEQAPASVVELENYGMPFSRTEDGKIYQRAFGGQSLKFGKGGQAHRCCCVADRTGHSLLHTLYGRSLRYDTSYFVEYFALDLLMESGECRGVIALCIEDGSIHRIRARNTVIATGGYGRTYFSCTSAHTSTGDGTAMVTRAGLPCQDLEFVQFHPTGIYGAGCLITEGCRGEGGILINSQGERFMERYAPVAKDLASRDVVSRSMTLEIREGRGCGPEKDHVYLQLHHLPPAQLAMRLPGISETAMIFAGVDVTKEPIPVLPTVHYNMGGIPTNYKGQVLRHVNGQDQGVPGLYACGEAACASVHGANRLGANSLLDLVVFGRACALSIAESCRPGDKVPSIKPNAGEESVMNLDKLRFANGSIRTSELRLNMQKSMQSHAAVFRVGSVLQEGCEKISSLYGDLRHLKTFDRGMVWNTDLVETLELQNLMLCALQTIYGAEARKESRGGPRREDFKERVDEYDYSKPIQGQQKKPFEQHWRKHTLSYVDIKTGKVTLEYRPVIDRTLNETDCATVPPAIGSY
T1 sequence (Q3T189 29-280 partner): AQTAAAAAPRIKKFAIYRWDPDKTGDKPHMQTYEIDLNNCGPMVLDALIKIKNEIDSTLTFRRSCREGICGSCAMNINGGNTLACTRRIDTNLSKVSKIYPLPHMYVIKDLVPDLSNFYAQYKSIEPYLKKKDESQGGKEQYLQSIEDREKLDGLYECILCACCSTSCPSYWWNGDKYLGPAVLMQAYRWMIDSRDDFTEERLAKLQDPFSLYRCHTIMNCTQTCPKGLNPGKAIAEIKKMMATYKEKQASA
T1 sequence (P35720 30-169 partner): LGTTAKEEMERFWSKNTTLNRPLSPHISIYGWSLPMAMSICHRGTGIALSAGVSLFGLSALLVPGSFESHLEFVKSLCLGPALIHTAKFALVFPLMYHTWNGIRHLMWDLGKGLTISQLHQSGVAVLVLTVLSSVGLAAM
T1 sequence (Q95123 56-158 partner): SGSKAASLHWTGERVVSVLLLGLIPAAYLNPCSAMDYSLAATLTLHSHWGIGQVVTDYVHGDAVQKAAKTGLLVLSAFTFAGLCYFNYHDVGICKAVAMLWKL
Put plainly: DCIP reduction at […] nm. The data set is classed as biochemical. Conditions: 2 mM malate, 0.1 mM decylubiquinone, GOT and glutamate, pH 7.1, 22 °C; product enol-OAA.
With `O=C(O)C[C@H](O)C(=O)O` [malate], the “DCIP reduction at 600 nm” value is listed as “These results confirm that malate oxidation by SDH forms enol-OAA”.
